From paper doi:10.1101/2025.01.26.634877 (bioRxiv, 2025)

Target: the molecule itself
Assay: light scattering

B1: Recombinant mouse neurofilament light chain protein, wild type (NfL-WT) (natural protein, UniProt P08551 1-543, looked up)
chain: MSSFGYDPYFSTSYKRRYVETPRVHISSVRSGYSTARSAYSSYSAPVSSSLSVRRSYSSSSGSLMPSLENLDLSQVAAISNDLKSIRTQEKAQLQDLNDRFASFIERVHELEQQNKVLEAELLVLRQKHSEPSRFRALYEQEIRDLRLAAEDATNEKQALQGEREGLEETLRNLQARYEEEVLSREDAEGRLMEARKGADEAALARAELEKRIDSLMDEIAFLKKVHEEEIAELQAQIQYAQISVEMDVSSKPDLSAALKDIRAQYEKLAAKNMQNAEEWFKSRFTVLTESAAKNTDAVRAAKDEVSESRRLLKAKTLEIEACRGMNEALEKQLQELEDKQNADISAMQDTINKLENELRSTKSEMARYLKEYQDLLNVKMALDIEIAAYRKLLEGEETRLSFTSVGSITSGYSQSSQVFGRSAYSGLQSSSYLMSARSFPAYYTSHVQEEQTEVEETIEATKAEEAKDEPPSEGEAEEEEKEKEEGEEEEGAEEEEAAKDESEDTKEEEEGGEGEEEDTKESEEEEKKEESAGEEQVAKKKD
modifications: native post-translational phosphorylation (varying levels, sites not given); N-terminal carbamoylation observed from the urea conditions
  binding result: binds
